“Also recorded” adds a separate entry of the source. Values belong to the molecule of their own block, whether it stands above or below them.
Target: TGFβ-1 (Homo sapiens, UniProt P01137)
Experiment: Microtiter binding assay: [125I]-TGFβ-1 binding to decorin-coated wells and competition
Parameters: contains a major band at 25 kd; This band represents the native TGFβ-1 dimer; purchased Calbiochem, La Jolla, Calif
Settings: for inhibition of [125I]-TGFβ-1 binding to decorin-coated wells by core proteins: core proteins / chondroitinase ABC-treated, 4° C. overnight (FIG. 3B); for inhibition of [125I]-TGFβ-1 binding to decorin-coated wells: intact proteoglycans, 37° C. 4 hours (FIG. 3A)
Procedure: The binding of TGFβ-1 to decorin was also examined in a microtiter binding assay. To perform the assay, the wells of a 96-well microtiter plate were coated overnight with 2μg/ml of recombinant decorin in 0.1M sodium carbonate buffer, pH 9.5. The wells were washed with PBS containing 0.05% Tween (PBS/Tween) and samples containing 5×10^4 cpm of [^125 I]-TGFβ-1 and various concentrations of competitors in PBS/Tween were added to each well. The plates were then incubated at 37° C. for 4 hours (at 4° C. overnight in experiments with chondroitinase ABC-digested proteoglycans), washed with PBS/Tween and the bound radioactivity was solubilized with 1% SDS in 0.2M NaOH. Total binding without competitors was about 4% under the conditions used. Nonspecific binding, determined by adding 100-fold molar excess of unlabeled TGFβ-1 over the labeled TGFβ-1 to the incubation mixture, was about 13% of total binding. This assay was also used to study the ability of other decorin preparations and related proteins to compete with the interaction.
Decorin isolated from bovine skin and biglycan isolated from bovine articular cartilage (PGI and PGII, obtained from Dr. Lawrence Rosenberg, Monteflore Medical Center, N.Y.; and described in Rosenberg et al., J. Biol. Chem. 250:6304-6313, (1985), incorporated by reference herein), chicken cartilage proteoglycan (provided by Dr. Paul Goetinck, La Jolla Cancer Research Foundation, La Jolla, Calif., and described in Goetinck, P. F., in THE GLYCOCONJUGATES, Vol. III, Horwitz, M. I., Editor, pp. 197-217, Academic Press, NY). For the preparation of core proteins, proteoglycans were digested with chondroitinase ABC (Seikagaku, Tokyo, Japan) by incubating 500 μg of proteoglycan with 0.8 units of chondroitinase ABC in 250 μl of 0.1M Tris/Cl, pH 8.0, 30 mM sodium acetate, 2 mM PMSF, 10 mM N-ethylmalelmide, 10 mM EDTA, and 0.36 mM pepstatin for 1 hour at 37° C. Recombinant decorin and decorin isolated from bovine skin (PGII) inhibited the binding of [^125 I]-TGFβ-1, as expected (FIG. 3A). […] This notion was further supported by competition experiments with the mutated decorin core protein (not shown) and chondroitinase ABC-digested decorin and biglycan (FIG.3B). Each of these proteins was inhibitory, whereas cartilage proteoglycan core protein was not.

TGFβ-1, sequence (P01137 279-390 limits assumed, species assumed): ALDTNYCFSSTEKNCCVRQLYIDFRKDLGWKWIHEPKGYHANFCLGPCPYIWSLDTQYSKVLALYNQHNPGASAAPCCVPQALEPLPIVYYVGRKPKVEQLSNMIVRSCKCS

B1: mutated decorin core protein: decorin core protein with serine-4 mutated, lacking glycosaminoglycan (protein)
chain: DEATGIGPEVPDDRDFEPSLGPVCPFRCQCHLRVVQCSDLGLDKVPKDLPPDTTLLDLQNNKITEIKDGDFKNLKNLHALILVNNKISKVSPGAFTPLVKLERLYLSKNQLKELPEKMPKTLQELRAHENEITKVRKVTFNGLNQMIVIELGTNPLKSSGIENGAFQGMKKLSYIRIADTNITSIPQGLPPSLTELHLDGNKISRVDAASLKGLNNLAKLGLSFNSISAVDNGSLANTPHLRELHLDNNKLTRVPGGLAEHKYIQVVYLHNNNISVVGSSDFCPPGHNTKKASYSGVSLFSNPVQYWEIQPSTFRCVYVRSAIQLGNYK
inhibition of [125I]-TGFβ-1 binding to decorin-coated wells by core proteins: inhibitory

B2: chondroitinase ABC-digested decorin: decorin core protein prepared by chondroitinase ABC digestion (protein)
chain: B1 chain
inhibition of [125I]-TGFβ-1 binding to decorin-coated wells by core proteins: inhibitory; also recorded: somewhat more active than the intact proteoglycans

B3: Biglycan isolated from bovine articular cartilage: biglycan isolated from bovine articular cartilage (protein)
chain: DEEASGAETTSGIPDLDSLPPTYSAMCPFGCHCHLRVVQCSDLGLKAVPKEISPDTTLLDLQNNDISELRKDDFKGLQHLYALVLVNNKISKIHEKAFSPLRKLQKLYISKNHLVEIPPNLPSSLVELRIHDNRIRKVPKGVFSGLRNMNCIEMGGNPLENSGFEPGAFDGLKLNYLRISEAKLTGIPKDLPETLNELHLDHNKIQAIELEDLLRYSKLYRLGLGHNQIRMIENGSLSFLPTLRELHLDNNKLSRVPAGLPDLKLLQVVYLHTNNITKVGVNDFCPVGFGVKRAYYNGISLFNNPVPYWEVQPATFRCVTDRLAIQFGNYKK
modifications: intact proteoglycan (carries glycosaminoglycan)
inhibition of [125I]-TGFβ-1 binding to decorin-coated wells: as effective an inhibitor as decorin
binding of [125I]-TGFβ-1 to microtiter wells coated with the protein (protein coated on wells): bound

B4: decorin isolated from bovine skin (PGII): decorin isolated from bovine skin (protein, UniProt P21793 31-360, looked up)
Decorin: DEASGIGPEEHFPEVPEIEPMGPVCPFRCQCHLRVVQCSDLGLEKVPKDLPPDTALLDLQNNKITEIKDGDFKNLKNLHTLILINNKISKISPGAFAPLVKLERLYLSKNQLKELPEKMPKTLQELRVHENEITKVRKSVFNGLNQMIVVELGTNPLKSSGIENGAFQGMKKLSYIRIADTNITTIPQGLPPSLTELHLDGNKITKVDAASLKGLNNLAKLGLSFNSISAVDNGSLANTPHLRELHLNNNKLVKVPGGLADHKYIQVVYLHNNNISAIGSNDFCPPGYNTKKASYSGVSLFSNPVQYWEIQPSTFRCVYVRAAVQLGNYK
inhibition of [125I]-TGFβ-1 binding to decorin-coated wells: inhibited

The remaining lines, values ahead:

inhibition of [125I]-TGFβ-1 binding to decorin-coated wells by core proteins: did not shown any inhibition
Molecule: Bovine serum albumin treated with chondroitinase ABC: BSA treated with chondroitinase ABC, control [reference compound]

inhibition of [125I]-TGFβ-1 binding to decorin-coated wells: did not shown any inhibition
Molecule: Bovine serum albumin: bovine serum albumin control [reference compound]

Source: patent US5705609A, “Decorin fragments inhibiting cell regulatory factors” (La Jolla Cancer Research Foundation, priority 1995, dated 1998)
